Test results reported in paper PMC8464984, “AimR Adopts Preexisting Dimer Conformations for Specific Target Recognition in Lysis-Lysogeny Decisions of Bacillus Phage phi3T” (Biomolecules, 2021).
Numbering of substitutions follows the chain as printed. In names and notes the source's numbering stands.

B1: AimR from Phi3T phage (phAimR), wild type (natural protein, Bacillus phage phi3T)
chain: MIKNECEKDNQLAARLAKLAGYEKVNGFYKFVNTPEKEMENLGGLLKIVKNLFPDSEEQLLSEYFLELDPNKKCARQSVEYSDINQWDTLTDKIIINLCNSKNSTSQEWGKVYSLHRKLNKNEISLNDAIRESGKCKIKSAEMLFFSNAMLMYAYLNIGEFGLMKSTSKLLEFDDLPEGFIKESFKSRVSMLEANISLNENSLLEARQHSNRAIENSNVNRICFFAYLTIGNTLIFEDYDEAKKAYIKGQKYAKNPVHQEMLDGALCFLSNIWKKENQWVNYNSDNIKYLQLRAFYYINQGNIEEATEILDELSSRDQDENELGFYYYYKGLISQDKTDYYKSIRYFKKSDDKYFIQLPLLQLERMGADLELLNLISI
notes: AimR transcription factor of Bacillus phage phi3T, codon-optimized cDNA (GenBank KY030782.1) in pET15b; theoretical mass printed as 44.3 kDa; 6x His tag removed with drICE protease; Dimer by SLS, AUC and SAXS; also called phi3T AimR; wild-type phAimR; source: E. coli BL21 (DE3), purified (Ni-NTA, anion exchange, size-exclusion chromatography); not shown: His6, N-terminal, cleaved
B2: phAimR carrying two amino acids substitutions (phAimR^Y341A/E371A) (natural protein, Bacillus phage phi3T)
chain: B1 chain with Y341A, E371A
notes: AimR of Bacillus phage phi3T (GenBank KY030782.1) with Y341A and E371A; also called phAim^Y341A/E371A; phAimR^Y341/E371A; source: E. coli BL21 (DE3), purified, prepared in the same way as the wild-type protein; not shown: His6, N-terminal, cleaved
B3: phAimR^C6S/C74S/C99S/C136S/C223S/C267S/D174C, labelled with Alexa488 and Cy5 (natural protein, Bacillus phage phi3T)
chain: B1 chain with C6S, C74S, C99S, C136S, D174C, C223S, C267S
modifications: Alexa Fluor 488 C5 maleimide or Cy5 maleimide on the cysteine at D174C
notes: AimR of Bacillus phage phi3T (GenBank KY030782.1), six solvent-exposed cysteines changed to serine and D174C added for labelling; One dye per chain; the doubly labelled species is a dimer with Alexa488 on one subunit and Cy5 on the other; also called phAimR (D174C labeling site); D174C dye-labeling; source: E. coli BL21 (DE3), purified in the same way as the wild-type phAimR, dye-conjugated, …
B4: phAimR^C6S/C74S/C99S/C136S/C223S/C267S/N103C, labelled with Alexa488 and Cy5 (natural protein, Bacillus phage phi3T)
chain: B1 chain with C6S, C74S, C99S, N103C, C136S, C223S, C267S
modifications: Alexa Fluor 488 C5 maleimide or Cy5 maleimide on the cysteine at N103C
notes: AimR of Bacillus phage phi3T (GenBank KY030782.1), six solvent-exposed cysteines changed to serine and N103C added for labelling; One dye per chain; the doubly labelled species is a dimer with Alexa488 on one subunit and Cy5 on the other; also called phAimR (N103C labeling site); N103C dye-labeling; source: E. coli BL21 (DE3), purified in the same way as the wild-type phAimR, dye-conjugated, …
B5: phAimR: AimR from Phi3T phage (GenBank: KY030782.1), transcription factor and arbitrium peptide receptor (protein)
chain: B1 chain
modifications: left off: His6, N-terminal, cleaved
notes: AimR from Phi3T phage (GenBank: KY030782.1), transcription factor and arbitrium peptide receptor
B6: phi3T target DNA (smFRET titration) (dsDNA)
DNA 1: GAAATGTCCAGAAATTCAAAAATCAAAAAATAAGAACATGG
DNA 2: CCATGTTCTTATTTTTTGATTTTTGAATTTCTGGACATTTC
B7: phi3T arbitrium peptide (SAIRGA) (peptide)
peptide: SAIRGA
notes: mature arbitrium peptide processed from the AimP pro-peptide (43 amino acids) of Bacillus phage phi3T; also called SAIRGA peptide; phi3T-derived peptide

Key:
[1] = target: the molecule itself; assay: SEC; Superdex 200 Increase 10/300 GL; 8.2 uM protein without peptide; 25 mM Tris-HCl pH 8.0, 300 mM NaCl
[2] = target: the molecule itself; assay: SEC-MALS; static light scattering; 1.6 mg/mL protein without peptide; Superdex 200 Increase 10/300 with HELEOS multi-angle light scattering; 25 mM Tris-HCl pH 8.0, 300 mM NaCl
[3] = target: the molecule itself; assay: SAXS; 100 uM protein without peptide; room temperature; 25 mM Tris-HCl pH 8.0, 300 mM NaCl
[4] = target: the molecule itself; assay: FRET or BRET; smFRET in solution, FRET between the two subunits (one dye site per chain), no ligand; about 100 pM doubly labelled phAimR; 25 C, 20 mM Tris-HCl pH 7.5, 100 mM NaCl, 0.005% Tween 20
[5] = target: T1, phAimR dimer (N103C-labelled) (Bacillus phage phi3T, UniProt P0DOE3, C136S/C223S/C267S/C6S/C74S/C99S/N103C); assay: smFRET titration of phAimR dimer labelled at N103C (Alexa488/Cy5); type: binding; details: no ligand
T1 construct: 6xHis (N, cleaved yes); made in house; host or cells: Escherichia coli BL21 (DE3)
Protocol: (§1) The cysteine substitutions of phAimR (phAimR^C6S/C74S/C99S/C136S/C223S/C267S/N103C or phAimR^C6S/C74S/ C99S/C136S/C223S/C267S/D174C) were generated with a standard PCR-based strategy. Proteins were prepared in the same way as the wild-type phAimR. Alexa Fluor 488 C5 maleimide (Alexa488, A10254, Thermo Fisher, Shanghai, China) and Cy5 maleimide (Cy5, PA15131, GE Healthcare, Shanghai, China) were used as fluorescence donor and acceptor, respectively. A desalting column (HiPrep 26/10, GE Healthcare, Shanghai, China) was used to exchange the protein buffer into the conjugation buffer containing 20 mM phosphate (pH 7.4) and 100 mM NaCl. The protein fraction was collected in premixed Alexa488 and Cy5 dyes. The conjugation of phAimR was performed with Alexa488 and Cy5 at a molar ratio of 1:4:4. Conjugation reaction was performed for 3 h at room temperature in the dark, and the mixture was then purified using a Source-Q column (GE Healthcare, Shanghai, China). The fractions of double-labeled protein that had absorption at 280 nm, 493 nm and 640 nm were collected for smFRET data collection.
(§2) The laser confocal fluorescence microscope MicroTime 200 (PicoQuant, Berlin, Germany) was used for single-molecule imaging, and a pulsed interleaved excitation (PIE) scheme was used with two SPCM-AQRH detectors (Excelitas, Waltham, MA, USA) for recording fluorescence time traces at two different wavelengths. Two picosecond-pulsed diode laser heads (LDH-P-C-485 and LDH-P-C-640; PicoQuant, Berlin, Germany) were driven by a PDL 828 Sepia II driver (PicoQuant) at a repetition rate of 40 MHz, which allowed interleaved excitations for Alexa488 and Cy5. Each laser was coupled to the inverted microscope IX 73 (Olympus, Beijing, China) through a single-mode fiber, and was reflected by a dichroic mirror through a water-immersion objective (UPLSAPO 60×, N.A. 1.20). The protein sample was loaded onto a hybridization chamber (Thermo Fisher) glued to a glass coverslip (Thermo Fisher, Shanghai, China). The laser confocal point was set to about 50 μm above the coverslip. The excitation power at the back of the objective was about 100 μW for the 485 nm laser and about 35 μW for the 640 nm laser, as estimated with a power meter (PM20-FC; Thorlabs, Shanghai, China). Focused to a 100 μm pinhole, the fluorescence emission from the excited protein molecule was collected with the same objective. The donor and acceptor emissions were separated with a dichroic mirror (T635lpxr; Chroma, Xiamen, China). The donor emission was filtered with a 520/35 BP band pass, and the acceptor emission was filtered with a 690/70 BP band pass, before being focused onto the two SPCM-AQRH detectors.
(§3) The fluorescence outputs were recorded with a TimeHarp 260 PCI board (PicoQuant, Berlin, Germany) built into a PC workstation, and the data were stored in the time-tagged time-resolved module (PicoQuant, Berlin, Germany). The photon counts including fDex/Dem, fDex/Aem and fAex/Aem were obtained by binning the photons in 1 ms bins using SymPhoTime64 software (PicoQuant, Berlin, Germany). […] With all three fluorescence time traces recorded, the signals from the donor-only or acceptor-only protein molecules were filtered out, so as to ensure that an fDex/Aem photon only arises from a doubly labeled protein. […]

[6] = target: T2, phAimR dimer (D174C-labelled) (Bacillus phage phi3T, UniProt P0DOE3, C136S/C223S/C267S/C6S/C74S/C99S/D174C); assay: smFRET titration of phAimR dimer labelled at D174C (Alexa488/Cy5); type: binding; details: no ligand
T2 construct: 6xHis (N, cleaved yes); made in house; host or cells: Escherichia coli BL21 (DE3)
Protocol: as §1, §2, §3

phAimR N103C-labeled = target: T3, phAimR N103C-labeled (Bacillus phage phi3T, UniProt P0DOE3 1-378, C6S;C74S;C99S;C136S;C223S;C267S;N103C); assay: smFRET titration; no peptide; EMSA: 25 mM Tris-HCl pH 8.0, 150 mM NaCl, 5 mM MgCl2, 5 mM DTT, 0.1 mg/mL BSA, 10% glycerol, room temperature 10 min, 5 nM probe, protein 0-1 (printed 'M', probably uM); smFRET titration buffer not in the material; details: protein: recombinant; tags: N-terminal 6xHis removed with drICE protease; Alexa488/Cy5 maleimide at C103; chain copies: 2; blunt
T3 sequence: B1 chain with C6S, C74S, C99S, N103C, C136S, C223S, C267S

phAimR D174C-labeled = target: T4, phAimR D174C-labeled (Bacillus phage phi3T, UniProt P0DOE3 1-378, C6S;C74S;C99S;C136S;C223S;C267S;D174C); assay: as above; details: protein: recombinant; tags: N-terminal 6xHis removed with drICE protease; Alexa488/Cy5 at C174; chain copies: 2; blunt
T4 sequence: B1 chain with C6S, C74S, C99S, C136S, D174C, C223S, C267S

[7] = target: B4; assay: FRET or BRET; smFRET in solution; about 100 pM doubly labelled (Alexa488/Cy5) phAimR, peptide titrated; KD from the population of the enriched FRET state; 25 C, 20 mM Tris-HCl pH 7.5, 100 mM NaCl, 0.005% Tween 20, 1 mM L-ascorbic acid, 1 mM methylviologen; details: both partners purified
[8] = target: B3; assay: as above; details: both partners purified

T1 sequence (P0DOE3 whole entry C6S/C74S/C99S/N103C/C136S/C223S/C267S): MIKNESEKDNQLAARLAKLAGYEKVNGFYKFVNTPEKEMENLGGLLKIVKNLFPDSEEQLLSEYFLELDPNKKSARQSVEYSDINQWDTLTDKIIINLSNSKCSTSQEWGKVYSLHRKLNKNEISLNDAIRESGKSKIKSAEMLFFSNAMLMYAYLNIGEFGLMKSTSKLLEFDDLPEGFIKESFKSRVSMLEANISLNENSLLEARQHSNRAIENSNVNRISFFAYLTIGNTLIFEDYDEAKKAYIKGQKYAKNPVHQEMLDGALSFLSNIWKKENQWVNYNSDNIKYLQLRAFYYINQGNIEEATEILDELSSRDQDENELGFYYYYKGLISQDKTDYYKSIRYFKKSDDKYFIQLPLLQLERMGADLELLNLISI
T2 sequence (P0DOE3 whole entry C6S/C74S/C99S/C136S/D174C/C223S/C267S): as the sequence (P0DOE3 whole entry C6S/C74S/C99S/N103C/C136S/C223S/C267S) above, with C103N, D174C counted along it

## B1
[1]
  stoichiometry N: 2
[2]
  stoichiometry N: ~2

## B2
[3]
  stoichiometry N: 2

## B3
[4]
  stoichiometry N: 2

## B4
[4]
  stoichiometry N: 2

## B5
[5]
  FRET efficiency centre of high-FRET species (state 2): ~62%
  FRET efficiency centre of low-FRET species (state 1): about 30%
  population of high-FRET species (Phigh, state 2): ~ 42%
  population of low-FRET species (Plow, state 1): ~ 58%
[6]
  FRET efficiency centre of high-FRET species (state 1): ~63%
  FRET efficiency centre of low-FRET species (state 2): about 35%
  population of high-FRET species (state 1): ~ 61%
  population of low-FRET species (state 2): ~ 39%

## B6
phAimR N103C-labeled
  Kd: 1650 ± 44.6 nM
phAimR D174C-labeled
  Kd: 1260 ± 218 nM

## B7
[7]
  Kd: 41.5 ± 5.8 nM
[8]
  Kd: 22.9 ± 0.5 nM
